Reference: US20040009166A1

Assays:
[1] = biological target: Recombinant human TNF-alpha (Pierce, cat # RTNFA50) (human) (UniProt P01375); experiment: SPR (BiaCore X), rhTNF-alpha immobilized on CM5 chip, SCA as analyte, 1:1 fit
[2] = biological target: Recombinant human TNF-alpha (Pierce, cat # RTNFA50) (human) (UniProt P01375); experiment: cell-based or functional assay

Chain of UniProt P01375 (P01375 whole entry, form in doubt): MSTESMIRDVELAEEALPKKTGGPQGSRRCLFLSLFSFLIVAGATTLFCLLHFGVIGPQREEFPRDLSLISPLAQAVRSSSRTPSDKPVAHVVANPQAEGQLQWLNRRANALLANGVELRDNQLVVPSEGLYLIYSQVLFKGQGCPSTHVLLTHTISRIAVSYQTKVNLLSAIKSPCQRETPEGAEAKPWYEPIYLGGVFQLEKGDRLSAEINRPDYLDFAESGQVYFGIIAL

Substance | Ka [1] | Kd [1] | koff [1] | kon [1] | IC50, TNF-sensitive cell rescue assay, after 5 cycles of freeze-thaw [2] | IC50, TNF-sensitive cell rescue assay, after 10 cycles of freeze-thaw [2] | IC50 Values (cell rescue of WEHI-13VAR cells from TNF-alpha) [2] | IC50 values (to rescue 50% WEHI-13VAR cells from killing by 1.0 ng/ml TNF) [2]
2-7-SC-3 SCA (D2E7 SCA, VH-(GGGGS)3-VL-his6, C-terminus Cys), native (scFv) | 1.1e+08 M⁻¹ | 9.05 nM | 0.000416 s⁻¹ | 46400 M⁻¹ s⁻¹ |  |  |  | 
2-7-SC-4 SCA (D2E7 SCA, VL-218-VH, no his tag, C-terminus Cys), native (scFv) | 5.49e+08 M⁻¹ | 1.82 nM | 0.000495 s⁻¹ | 272000 M⁻¹ s⁻¹ |  |  | 7.18 nM | 

Substances with a lower Kd [1], results first:

Ka [1] | Kd [1] | koff [1] | kon [1] | IC50, TNF-sensitive cell rescue assay, after 5 cycles of freeze-thaw [2] | IC50, TNF-sensitive cell rescue assay, after 10 cycles of freeze-thaw [2] | IC50 Values (cell rescue of WEHI-13VAR cells from TNF-alpha) [2] | Substance | IC50 values (to rescue 50% WEHI-13VAR cells from killing by 1.0 ng/ml TNF) [2]
8.36e+08 M⁻¹ | 1.2 nM | 0.000392 s⁻¹ | 328000 M⁻¹ s⁻¹ | 225 nM | 0.302 µg/mL |  | 2-7-SC-2 SCA (D2E7 SCA, VL-218-VH-his6, C-terminus Cys), native (scFv) | 3.05 nM
1.55e+10 M⁻¹ | 0.0644 nM | 1.12e-05 s⁻¹ | 173000 M⁻¹ s⁻¹ |  |  | 4.18 nM | 2-7-SC-5 SCA (D2E7 SCA, VL-218-VH-his6, Cys at linker position 2), native (scFv) | 
1.19e+10 M⁻¹ | 0.0843 nM | 2.96e-06 s⁻¹ | 35100 M⁻¹ s⁻¹ |  |  |  | 2-7-SC-7 SCA (D2E7 SCA, VH-(GGGGS)3-VL-his6, Cys at linker position 2), native (scFv) | 
